Test results taken from patent US20200347144A1 (SHANGHAI HYAMAB BIOTECH, published 2020).

Assays:
[1] = target: T1, human 4-1BB, full length, on transfected cells (human, UniProt Q07011 24-255); assay: FACS, CHOK1-h4-1BB cells; Ab 2 ug/ml
T1 construct: whole, on cells; also called CHOK1-h4-1BB
Procedure, shortened: (§1)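 CHOK1 stable lines expressing human or monkey 4-1BB were detached with enzyme-free Versene, blocked in 1% goat serum on ice for 30 min and resuspended at 2×10⁶ cells/mL in HBSS with 1% BSA. Purified antibody was bound on ice for 2 h, then cells were fixed in 4% paraformaldehyde and analysed by flow cytometry.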

[2] = target: T2, monkey 4-1BB on CHOK1 cells (monkey); assay: FACS, CHOK1-c4-1BB cells; Ab 2 ug/ml
T2 construct: whole, on cells; also called CHOK1-c4-1BB
Procedure, shortened: as §1

[3] = target: T1, human 4-1BB, full length, on …; assay: FACS, CHOK1-h4-1BB cells; Ab 10 ug/ml
Procedure, shortened: as §1

[4] = target: T2, monkey 4-1BB on CHOK1 cells; assay: FACS, CHOK1-c4-1BB cells; Ab 0.4 ug/ml
Procedure, shortened: as §1

[5] = target: T2, monkey 4-1BB on CHOK1 cells; assay: FACS, CHOK1-c4-1BB cells; Ab 0.08 ug/ml
Procedure, shortened: as §1

[6] = target: T2, monkey 4-1BB on CHOK1 cells; assay: FACS, CHOK1-c4-1BB cells; Ab 0.016 ug/ml
Procedure, shortened: as §1

[7] = target: T1, human 4-1BB, full length, on …; assay: FACS, CHOK1-h4-1BB cells; Ab 0.0032 ug/ml
Procedure, shortened: as §1

[8] = target: T2, monkey 4-1BB on CHOK1 cells; assay: FACS, CHOK1-c4-1BB cells; Ab 0.0032 ug/ml
Procedure, shortened: as §1

[9] = target: T3, hFc-tagged human 4-1BB extracellular domain protein (4-1BB-hFc) (human, UniProt Q07011 24-186, limits assumed); assay: ELISA, coated human 4-1BB-hFc; Ab 10 ug/ml
T3 construct: also called immunogen A; 4-1BB^ECD-hFc; not shown: human IgG Fc fragment (hFc) of the pCpC vector
Procedure: (§2) The purified immunogen A (4-1BB-hFc), monkey 4-1BB-his, and mouse 4-1BB-his obtained in Example 1 [for the preparation method, see step 1 of Example 1, preparation of immunogen A], of which the extracellular domain of monkey-derived 4-1BB protein (purchased from ACRO biosystems), the extracellular domain of mouse 4-1BB protein (purchased from sino biological) or other immune detection point proteins respectively were diluted with PBS to a final concentration of 1.0 μg/mL, then added with […] per well to 96-well ELISA plate. It was sealed with plastic film and incubated at 4° C. overnight. The next day, the plate was washed twice with the plate-washing solution [PBS containing 0.01% (v/v) Tween20] and blocking solution [PBS containing 0.01% (v/v) Tween 20 and 1% (v/v) BSA] was added and blocked at room temperature for 2 hours. The blocking solution was discarded and 100 μl of the purified 4-1BB antibody obtained in Example 2 was added per well. After incubated at 37° C. for 2 hours, the plate was washed 3 times with a plate-washing solution [PBS containing 0.01% (v/v) Tween20]. A secondary antibody (purchased from Sigma) labeled with HRP (horseradish peroxidase) was added, and after incubated at 37° C. for 2 hours, the plate was washed 3 times with a plate-washing solution [PBS containing 0.01% (v/v) Tween20]. 100 μl of TMB substrate was added per well. After incubated for 30 minutes at room temperature, 100 μl of stop buffer (1.0N HCl) was added per well. The A450 nm values were read using an ELISA plate reader (SpectraMax 384plus, Molecular Device).

[10] = target: T2, monkey 4-1BB on CHOK1 cells; assay: FACS, CHOK1-c4-1BB cells; Ab 0.00013 ug/ml
Procedure, shortened: as §1

monkey 4-1BB-his protein [11] = target: T4, monkey 4-1BB-his protein (monkey); assay: ELISA, coated monkey 4-1BB-his; Ab 10 ug/ml
T4 construct: extracellular domain; Bought protein; also called extracellular domain of monkey-derived 4-1BB protein
Procedure: as §2

[12] = target: T3, hFc-tagged human 4-1BB extracellular …; assay: ELISA, coated human 4-1BB-hFc; Ab 0.016 ug/ml
Procedure: as §2

monkey 4-1BB-his protein [13] = target: T4, monkey 4-1BB-his protein; assay: ELISA, coated monkey 4-1BB-his; Ab 0.08 ug/ml
Procedure: as §2

[14] = target: T3, hFc-tagged human 4-1BB extracellular …; assay: ELISA, coated human 4-1BB-hFc; Ab 0.0006 ug/ml
Procedure: as §2

[15] = target: T1, human 4-1BB, full length, on …; assay: FACS on CHOK1-h4-1BB cells, Alexa 488 secondary antibody, average fluorescence intensity
Description: The pIRES plasmid carrying the full-length gene of monkey-derived […] (the preparation method is the same as the preparation method of the pCpC vector carrying the human-derived IgG Fc fragment (hFc) in “Preparation of immunogen A” of the step (1) in Example 1, in which the database accession number of the amino acid sequence of the extracellular region of monkey 4-1BB protein (Phe19-Thr239) is G7PSE7) was transfected into CHOK1 cell line to obtain CHOK1 stable transfected cell line containing monkey 4-1BB (herein referred to as CHOK1-c4-1BB stable cell line). The CHOK1-h4-1BB stable cell line and the CHOK1-c4-1BB stable cell line were expanded and cultivated to 90% confluence in T-75 cell culture flasks. The medium was exhausted, and washed twice with HBSS buffer (Hanks Balanced Salt Solution, purchased from Invitrogen), and then the cells were treated and collected with enzyme-free cell dissociation solution (Versene solution, purchased from Life Technology). The cells were washed twice with HBSS buffer, and after cell counting, the cells were diluted with HBSS buffer to 2×10⁶ cells per ml, and 1% goat serum blocking solution was added, the percentage being the mass percentage. It was incubated on ice for 30 minutes, and then washed twice with HBSS buffer by centrifugation. The collected cells were suspended in FACS buffer (HBSS containing 1% BSA, the percentage was the mass percentage) to 2×10⁶ cells/mL, and 100 μl per well was added to a 96-well FACS reaction plate. The purified 4-1BB antibody test sample obtained in Example 2 was added, 100 microliters per well and incubated on ice for 2 hours. […] It was washed three times with FACS buffer by centrifugation, and 100 μl of fixative [4% (v/v) paraformaldehyde] per well was added to suspend cells, and washed twice with FACS buffer after 10 minutes by centrifugation. The cells were suspended with 100 microliters of FACS buffer, and the results were detected and analyzed with FACS (FACS Calibur, purchased from BD).

T1 sequence (Q07011 24-255): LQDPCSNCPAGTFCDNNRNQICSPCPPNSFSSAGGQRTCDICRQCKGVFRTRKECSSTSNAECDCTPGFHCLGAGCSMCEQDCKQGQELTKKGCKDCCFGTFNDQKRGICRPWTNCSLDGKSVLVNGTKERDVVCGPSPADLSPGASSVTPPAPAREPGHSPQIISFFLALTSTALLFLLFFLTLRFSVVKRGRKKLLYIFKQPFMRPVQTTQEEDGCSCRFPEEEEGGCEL

B1: 263A11E3 (antibody, V domains shown)
VH: QVQLQESGPGLVKPSETLSLTCAVSGYSISSGYYWGWIRQPPGKGLEWIGSIYHSGSTSYNPSLRSRVTISVDTSKNQFSLKLSSVTAADTAVYYCARDAGGFDYWGQGTLVTVSS
VL: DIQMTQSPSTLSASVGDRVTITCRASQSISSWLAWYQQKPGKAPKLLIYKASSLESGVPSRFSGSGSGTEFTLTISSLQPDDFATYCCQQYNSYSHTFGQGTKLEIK
B1 gave an average fluorescence intensity [1] of 1690 MFI, an average fluorescence intensity [2] of 93.5 MFI and an average fluorescence intensity [3] of 1780 MFI. For the same binder, the average fluorescence intensity [4] was 56.5 MFI, the average fluorescence intensity [5] was 21.1 MFI and the average fluorescence intensity [6] was 8 MFI. For the same binder, the average fluorescence intensity [7] was 22.9 MFI, the average fluorescence intensity [8] was 3.8 MFI and the OD450 nm [9] was 2.75 OD450 nm. For the same binder, the average fluorescence intensity [10] was 2.4 MFI, the OD450 nm (monkey 4-1BB-his protein [11]) was 0.87 OD450 nm and the OD450 nm [12] was 1.23 OD450 nm. The OD450 nm (monkey 4-1BB-his protein [13]) was 0.08 OD450 nm, the OD450 nm [14] was 0.1 OD450 nm and the “EC50 (read off the curve)” value [15] was ~0.3 µg/mL.
